The source of these data is US20240424056A1, “Peptides for Anti Fibrotic Therapy” (McMaster University, priority 2021, published 2024).

Ends that are not written are not given here.

Format in all cases: cell-based
The target of test [1] is T1, α2M*/csGRP78 interaction (Homo sapiens, UniProt P01023).
T1 construct: host or cells: 1LN prostate cancer cells (endogenous csGRP78); α2M* added from outside
T1 sequence (P01023 24-1474): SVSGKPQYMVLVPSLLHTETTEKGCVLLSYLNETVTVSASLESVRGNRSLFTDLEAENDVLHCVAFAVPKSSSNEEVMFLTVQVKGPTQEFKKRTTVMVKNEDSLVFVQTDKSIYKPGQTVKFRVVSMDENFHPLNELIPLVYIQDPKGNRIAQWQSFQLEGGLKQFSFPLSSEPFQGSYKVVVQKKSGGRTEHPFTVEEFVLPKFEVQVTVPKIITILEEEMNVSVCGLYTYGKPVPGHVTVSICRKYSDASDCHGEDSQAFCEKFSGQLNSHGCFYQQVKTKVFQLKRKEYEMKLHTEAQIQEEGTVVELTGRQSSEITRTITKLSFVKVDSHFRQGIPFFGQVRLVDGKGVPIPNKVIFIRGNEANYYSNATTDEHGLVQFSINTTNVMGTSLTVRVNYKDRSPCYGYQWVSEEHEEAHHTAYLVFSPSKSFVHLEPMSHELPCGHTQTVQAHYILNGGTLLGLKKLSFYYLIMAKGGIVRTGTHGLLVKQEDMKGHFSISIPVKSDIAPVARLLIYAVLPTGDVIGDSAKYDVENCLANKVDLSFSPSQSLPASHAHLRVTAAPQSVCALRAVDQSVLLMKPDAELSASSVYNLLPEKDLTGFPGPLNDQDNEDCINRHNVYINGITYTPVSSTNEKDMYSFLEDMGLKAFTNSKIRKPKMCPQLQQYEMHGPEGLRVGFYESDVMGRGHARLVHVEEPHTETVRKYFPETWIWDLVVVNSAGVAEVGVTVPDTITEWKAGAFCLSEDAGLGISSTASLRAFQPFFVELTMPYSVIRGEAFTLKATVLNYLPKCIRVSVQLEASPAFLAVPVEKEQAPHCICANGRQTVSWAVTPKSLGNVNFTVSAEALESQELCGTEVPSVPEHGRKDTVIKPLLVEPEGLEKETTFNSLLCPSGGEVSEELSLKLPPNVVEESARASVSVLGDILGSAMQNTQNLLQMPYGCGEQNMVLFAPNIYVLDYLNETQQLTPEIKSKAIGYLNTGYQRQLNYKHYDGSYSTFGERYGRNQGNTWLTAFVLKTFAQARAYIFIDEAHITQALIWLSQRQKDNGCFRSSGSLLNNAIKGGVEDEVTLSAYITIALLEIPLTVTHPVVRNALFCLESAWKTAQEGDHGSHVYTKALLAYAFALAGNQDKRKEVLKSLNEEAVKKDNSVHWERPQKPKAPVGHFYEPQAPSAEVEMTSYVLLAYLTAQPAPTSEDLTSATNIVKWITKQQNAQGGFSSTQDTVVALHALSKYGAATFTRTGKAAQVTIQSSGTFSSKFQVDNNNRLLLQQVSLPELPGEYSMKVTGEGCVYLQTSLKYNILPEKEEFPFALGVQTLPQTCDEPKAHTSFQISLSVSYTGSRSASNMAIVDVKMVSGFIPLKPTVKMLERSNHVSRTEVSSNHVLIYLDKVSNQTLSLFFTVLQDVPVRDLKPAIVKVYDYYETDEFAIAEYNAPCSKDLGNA
Kind of test: Intracellular calcium assay (Fura-2AM) in 1LN cells treated with α2M*. Here is the method: (§1) Cell Culture-Primary mesangial cells (MC) were obtained from male C57BL/6 mice by glomerular sieving and cultured in Dulbecco's modified Eagle's medium (Sigma) supplemented with 20% fetal bovine serum, streptomycin (100 μg/mL) and penicillin (100 μg/mL). 1LN prostate cancer cells, which express high levels of csGRP78 (as described in Hart et al., J Biol Chem. 2002; 277 (44): 42082-42087) were cultured in RPMI 1640 supplemented with 10% fetal bovine serum (ThermoFisher). Cells were grown at 37° C. in 95% 02 and 5% CO2. The immortalized human proximal tubular cell line HK2 (ATCC, Burlington, Canada) was cultured in 10% FBS in DMEM/F12 medium. Primary rat renal fibroblasts (Cell Biologics, Burlington, Canada) and cultured in 10% FBS in DMEM/F12 medium. MC were serum deprived in medium with 1% bovine serum albumin (BSA) and HK2 and RF cells were starved in 0.5% FBS 24 h before treatment with HG (30 mM), mannitol (24.4 mM) as osmotic control or methylamine-activated α2M (100 pM). The peptide sequence in GRP78 to which α2M* binds was used to block their interaction (CLIGRTWNDPSVQQDIKFL) (Leu^98-Leu^115 with an additional N-terminal cysteine) (Gopal et al., J Biol Chem. 2016; 291 (20): 10904-10915). […]
Intracellular Calcium Assay—1LN cells were plated in a 96 black walled clear bottom plate and allowed to grow to confluence over 2 days. After loading with the calcium indicator Fura-2AM (5 μM, Abcam) in HBSS for 45 minutes at 37° C. in the dark, baseline fluorescence readings were taken every minute for 5 minutes using a temperature-controlled fluorescent microplate reader (Gemini EM Spectra Max, Molecular Devices) set to 340 and 380 nm excitation and 510 nm emission. After treatment with methylamine-activated α2M (100 pM) with or without antibody (Fα2M or control IgG, 2 μg) and with or without peptide or scrambled peptide (100 nM), readings were taken every minute for 15 minutes. Intracellular calcium concentrations were determined by calculating the ratio of fluorescence signal (340/380 nm).
In general terms: Calcium flux is commonly read through the fluorescence of an indicator in the cells.

The target in test [2] is T2, α2M*/csGRP78 interaction (Mus musculus, UniProt Q6GQT1).
T2 construct: endogenous in cells; host or cells: primary mouse mesangial cells (C57BL/6)
T2 sequence (Q6GQT1 33-1474): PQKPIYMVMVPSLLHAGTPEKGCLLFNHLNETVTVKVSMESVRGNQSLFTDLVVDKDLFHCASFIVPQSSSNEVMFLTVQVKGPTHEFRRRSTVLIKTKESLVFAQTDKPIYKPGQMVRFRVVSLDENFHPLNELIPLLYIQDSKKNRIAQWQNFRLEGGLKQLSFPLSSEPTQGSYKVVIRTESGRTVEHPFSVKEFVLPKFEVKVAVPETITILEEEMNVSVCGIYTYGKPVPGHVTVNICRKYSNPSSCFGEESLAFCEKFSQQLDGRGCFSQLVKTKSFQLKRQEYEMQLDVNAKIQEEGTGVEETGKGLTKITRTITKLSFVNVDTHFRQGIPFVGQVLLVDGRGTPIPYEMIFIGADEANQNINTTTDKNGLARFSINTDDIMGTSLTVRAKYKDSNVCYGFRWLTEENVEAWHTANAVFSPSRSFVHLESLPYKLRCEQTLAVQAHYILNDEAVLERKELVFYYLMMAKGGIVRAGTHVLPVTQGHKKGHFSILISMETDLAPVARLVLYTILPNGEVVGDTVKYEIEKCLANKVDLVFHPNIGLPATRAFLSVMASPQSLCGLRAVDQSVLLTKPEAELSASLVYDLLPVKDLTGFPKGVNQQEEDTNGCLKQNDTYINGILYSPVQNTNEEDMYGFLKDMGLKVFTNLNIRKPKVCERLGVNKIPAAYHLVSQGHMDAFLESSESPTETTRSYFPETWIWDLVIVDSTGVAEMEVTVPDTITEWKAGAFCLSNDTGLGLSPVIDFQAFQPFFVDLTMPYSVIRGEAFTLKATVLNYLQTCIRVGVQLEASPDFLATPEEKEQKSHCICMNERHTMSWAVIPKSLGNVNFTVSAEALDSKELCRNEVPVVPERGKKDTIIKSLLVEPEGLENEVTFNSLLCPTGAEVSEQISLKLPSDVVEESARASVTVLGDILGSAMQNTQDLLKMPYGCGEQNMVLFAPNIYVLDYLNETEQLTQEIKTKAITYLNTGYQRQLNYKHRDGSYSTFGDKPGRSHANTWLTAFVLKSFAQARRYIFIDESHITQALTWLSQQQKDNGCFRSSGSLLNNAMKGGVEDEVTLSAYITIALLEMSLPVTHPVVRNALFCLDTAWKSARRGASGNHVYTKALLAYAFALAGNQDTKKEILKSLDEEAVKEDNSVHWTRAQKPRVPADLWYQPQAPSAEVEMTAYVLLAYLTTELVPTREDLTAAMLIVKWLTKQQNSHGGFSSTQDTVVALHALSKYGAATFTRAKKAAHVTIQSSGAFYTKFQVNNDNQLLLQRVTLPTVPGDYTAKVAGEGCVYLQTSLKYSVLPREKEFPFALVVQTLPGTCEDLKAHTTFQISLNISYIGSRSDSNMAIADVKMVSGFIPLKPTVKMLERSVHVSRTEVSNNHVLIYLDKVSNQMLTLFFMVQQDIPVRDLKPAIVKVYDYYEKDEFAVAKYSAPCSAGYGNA
Kind of test: High glucose (HG)-induced profibrotic responses in primary mesangial cells (MC), immunoblotting. To be noted: for HG-induced Akt activation (pAkt on S473) / HG-induced upregulation of fibronectin (FN), collagen (Col) IV and CTGF: MC, HG 48 h, peptides 100 nM; for HG-induced Akt activation (pAkt on S473): FIG. 4B; for HG-induced upregulation of fibronectin (FN), collagen (Col) IV and CTGF: FIG. 4C; for HG-induced profibrotic responses in MC: FIG. 11B, 11D. Here is the method:
Cell Culture-Primary mesangial cells (MC) were obtained from male C57BL/6 mice by glomerular sieving and cultured in Dulbecco's modified Eagle's medium (Sigma) supplemented with 20% fetal bovine serum, streptomycin (100 μg/mL) and penicillin (100 μg/mL). 1LN prostate cancer cells, which express high levels of csGRP78 (as described in Hart et al., J Biol Chem. 2002; 277 (44): 42082-42087) were cultured in RPMI 1640 supplemented with 10% fetal bovine serum (ThermoFisher). Cells were grown at 37° C. in 95% 02 and 5% CO2. The immortalized human proximal tubular cell line HK2 (ATCC, Burlington, Canada) was cultured in 10% FBS in DMEM/F12 medium. Primary rat renal fibroblasts (Cell Biologics, Burlington, Canada) and cultured in 10% FBS in DMEM/F12 medium. MC were serum deprived in medium with 1% bovine serum albumin (BSA) and HK2 and RF cells were starved in 0.5% FBS 24 h before treatment with HG (30 mM), mannitol (24.4 mM) as osmotic control or methylamine-activated α2M (100 pM). The peptide sequence in GRP78 to which α2M* binds was used to block their interaction (CLIGRTWNDPSVQQDIKFL) (Leu^98-Leu^115 with an additional N-terminal cysteine) (Gopal et al., J Biol Chem. 2016; 291 (20): 10904-10915). The scrambled peptide, GTNKSQDLWIPQLRDVFI (SEQ ID NO: 4) was used as a control, with both peptides used at 100 nM (Cedarlane). Additional peptides were synthesized by Biomatik as follows: 1) peptide lacking the N-terminal cysteine, 2) peptide in which the cysteine was replaced by a methionine, 3) dimerized peptide via the cysteine (LFKIDQQVSPDNWTRGILC—S—S— CLIGRTWNDPSVQQDIKFL) (SEQ ID NO: 5) head to tail cyclization via an amide which leaves the cysteine intact.
Protein Extraction and Immunoblotting-Cells were lysed as described previously (Krepinsky et al. Nitric Oxide Inhibits Stretch-Induced MAPK Activation in Mesangial Cells Through RhoA Inactivation. Published online 2003. doi: 10.1097/01.ASN.00000940.85.04161.A7). Proteins were separated using SDS-PAGE followed by immunoblotting. Antibodies used were: α2M (1:1000, Bioss), mouse monoclonal F-α2M, which detects only conformationally changed α2M* as previously described (1:1000), pAkt S473 (1:1000, Cell Signaling), total Akt (1:1000, Cell Signaling),), pSmad3 Ser423/425 (1:4000, Novus), total Smad3 (1:1000, Abcam), phosphorylated focal adhesion kinase (pFAK) Tyr-397 (1:1000, Millipore, 07-012), FAK (1:1000, Santa Cruz Biotechnology, SC558), LRP1 (1:1000, Abcam), GRP78 (C20) (1:1000, Santa Cruz), platelet derived growth factor-β (PDGFR-β) (1:1000, Cedarlane), collagen IV (Col IV) (1:1000, Cell Signaling), fibronectin (FN) (1:1000, Abcam), connective tissue growth factor (CTGF) (1:1000, Santa Cruz), and tubulin (1:2000, Santa Cruz).
On the technique in general: In western blotting, separated proteins are transferred to a membrane and probed.

In test [3] the test system is csGRP78 interaction with α2M*. In words: HG-induced profibrotic signaling and matrix production in human proximal tubular cell line HK2. The settings on record: proximal tubular cells; FIG. 8E. Here is the method:
as §1, with “10904-10915). The scrambled peptide, GTNKSQDLWIPQLRDVFI (SEQ ID NO: 4) was used as a control, with both peptides used at 100 nM (Cedarlane).” for “10904-10915).”

The test system of test [4] is csGRP78 interaction with α2M*. Kind of test: HG-induced profibrotic signaling and matrix production in primary rat renal fibroblasts. The settings on record: FIG. 8F. The procedure:
as §1, with “10904-10915). The scrambled peptide, GTNKSQDLWIPQLRDVFI (SEQ ID NO: 4) was used as a control, with both peptides used at 100 nM (Cedarlane).” for “10904-10915).”

On to CLIGRTWNDPSVQQDIKFL [Pep], for which the “release of intracellular calcium stores in response to α2M*” value in the test with α2M*/csGRP78 interaction [1] (1-LN cells, α2M* 100 pM, 15 min, peptides 100 nM, FIG. 4A) is “inhibited release of intracellular calcium stores”. In the test with α2M*/csGRP78 interaction [2], the “HG-induced Akt activation (pAkt on S473)” value is “prevented HG-induced Akt activation”; the “HG-induced upregulation of fibronectin (FN), collagen (Col) IV and CTGF” value is “prevented”. Besides, in test [3], the “HG-induced Akt activation (Ser473) and ECM production” value was “attenuated”. Further, the “HG-induced Akt activation (Ser473) and ECM production” value in test [4] is “attenuated”.
Take “GTNKSQDLWIPQLRDVFI [Scr, scrambled control peptide, reference compound]”: in the test with α2M*/csGRP78 interaction [2], the “HG-induced Akt activation (pAkt on S473)” value is “had no effect”; the “HG-induced upregulation of fibronectin (FN), collagen (Col) IV and CTGF” value is “had no effect”.
Regarding “LFKIDQQVSPDNWTRGILC—S—S— CLIGRTWNDPSVQQDIKFL (also: homodimer via disulfide between the N-terminal cysteines of two copies) [Dimer Pep, dimerized peptide via the cysteine]”, the “calcium signaling in 1LN cells induced by α2M*” value with α2M*/csGRP78 interaction [1] (FIG. 11C) is on record as “do not inhibit calcium signaling”. In the test with α2M*/csGRP78 interaction [2], the “HG-induced profibrotic responses in MC” value was “do not prevent HG-induced profibrotic responses”.
In the case of “LIGRTWNDPSVQQDIKFL [Pep woC, peptide without an N-terminal cysteine residue in Leu98-Leu115]”, the “calcium signaling in 1LN cells induced by α2M*” value in the test with α2M*/csGRP78 interaction [1] (peptide tested at 100 pM and 100 nM, FIG. 11A) is “did not inhibit calcium signaling”. In addition, the “HG-induced profibrotic responses in MC” value with α2M*/csGRP78 interaction [2] is listed as “does not prevent HG-induced profibrotic responses”.
